Experimental data taken from US20030167486.

Biological target: human APP London (V717F), P05067

B1: human BACE (protein)
chain: ETDEEPEEPGRRGSFVEMVDNLRGKSGQGYYVEMTVGSPPQTLNILVDTGSSNFAVGAAPHPFLHRYYQRQLSSTYRDLRKGVYEPYTQGKWEGELGTDLVSIPHGPNVTVRANIAAITESDKFFINGSNWEGILGLAYAEIARPDDSLEPFFDSLVKQTHVPNLFSLQLCGAGFPLNQSEVLASVGGSMIIGGIDHSLYTGSLWYTPIRREWYYEVIIVRVEINGQDLKMDCKEYNYDKSIVDSGTTNLRLPKKVFEAAVKSIKAASSTEKFPDGFWLGEQLVCWQAGTTPWNIFPVISLYLMGEVTNQSFRITILPQQYLRPVEDVATSQDDCYKFAISQSSTGTVMGAVIMEGFYVVFDRARKRIGFAVSACHVHDEFRTAAVEGPFVTLDMEDCGYNIPQTDESTLMTIAYVMAAICALFMLPLCLMVCQWRCLRCLRQQHDDFADDISLLK
12 kD beta-secretase fragment of APP on Western blot of brain homogenate: the 12 kD beta-secretase fragment of APP is strongly increased due to expression of transgenic beta-secretase
sAPP alpha and sAPP beta fragments in supernatants of organotypic cerebellar slice cultures (ELISA): the over-expression of beta-secretase in APP London single transgenic mice induces a preferential cleavage of APPV717F at the beta cut as demonstrated by the lack of sAPPalpha fragment detection and the increase of sAPPbeta
